target: T1, HLA-A*24:02 (human); test: allele assigned to HLA ligand eluted from tissue (IP, LC-MS)
T1 construct: Peptide-receptive MHC class I monomer in the UV-ligand exchange assay

Binder | binding result
LYDTVTHTF | binds
IYLTKSNLVNM | binds
FYNPRPPLI | binds
EYLGSENVF | binds
VLYPSHSSF | binds
KFPPSASEF | binds
VFLLLPYPRF | binds
VWILQKVNLAF | binds
QYLTYYPSF | binds
LYLETRSEF | binds
LWALAIPSL | binds
LWEEKPVCL | binds
TYLESSVRI | binds
SHSSPTVSF | binds
SYLKDHLSL | binds
FQLSGPVTF | binds
IFTGRNAYF | binds
VYIASSFKI | binds
VFVISGSHLF | binds
AWNESSAWLL | binds
SQIKSPVVF | binds
ILAPPQRISF | binds
NFHTLAQQLLF | binds
IWRALGSLF | binds

target: T2, HLA-A*01:01 (human); test: UV peptide exchange, anti-b2m ELISA; exchange yield grade
T2 construct: Peptide-receptive MHC class I monomer: a UV-sensitive peptide (not specified) is cleaved and exchanged with the test peptide
Description: (§1) Candidate peptides for T cell based therapies according to the present invention were further tested for their MHC binding capacity (affinity). The individual peptide-MHC complexes were produced by UV-ligand exchange, where a UV-sensitive peptide is cleaved upon UV-irradiation and exchanged with the peptide of interest as analyzed. Only peptide candidates that can effectively bind and stabilize the peptide-receptive MHC molecules prevent dissociation of the MHC complexes. To determine the yield of the exchange reaction, an ELISA was performed based on the detection of the light chain (β2m) of stabilized MHC complexes. The assay was performed as generally described in Rodenko et al. (Rodenko et al., 2006).
(§2) 96 well MAXISorp plates (NUNC) were coated over night with 2 μg/ml streptavidin in PBS at room temperature, washed 4× and blocked for 1 h at 37° C. in 2% BSA containing blocking buffer. […] Peptide-MHC monomers of the UV-exchange reaction were diluted 100-fold in blocking buffer. Samples were incubated for 1 h at 37° C., washed four times, incubated with 2 μg/ml HRP conjugated anti-β2m for 1 h at 37° C., washed again and detected with TMB solution that is stopped with […]. Absorption was measured at 450 nm.

Binder | peptide exchange yield [%]
ASSPVILLL | 20 to 50
DVDIHKDLY | ≥ 75
ETNTIEFIY | ≥ 75

target: HLA-B*44:05 (human); test: as above
Description: as §1, §2

Binder | binding result
METADRPEW | binds
REQLDGATL | binds
WETRLHNLW | binds
SQAKQITIW | binds
AETKQFWSA | binds
GEAAAARPV | binds
VEAPHLPSF | binds
RELGVGIAL | binds
EEGRIITKW | binds
AEGPDHHSL | binds
TEIGTVIKLF | binds
TEMSVSALY | binds
FDLNIGSAY | binds
VEGVHFVQLL | binds
REVAGASAL | binds
KEIEAQEAA | binds
KEFAFLEHSL | binds

target: T3, HLA-A*02:01 (human); test: as above
T3 construct: Peptide-receptive MHC class I monomer in the UV-ligand exchange assay
Description: as §1, §2

Binder | peptide exchange yield [%]
YMLEMDNSMKI | ≥ 75
ILVTAWKGV | 50 to 75
ITPDSIPSV | 50 to 75
ALNLSRLTV | ≥ 75
KLPFFTNFL | ≥ 75
GLLGTLRVL | ≥ 75
HLFSVLSAI | ≥ 75
LLDSWNILI | ≥ 75
FALGPIIKQL | 50 to 75
RLLRLIPIL | ≥ 75
